Measurements: publication PMC5457685, “Pellino-1 promotes lung carcinogenesis via the stabilization of Slug and Snail through K63-mediated polyubiquitination” (Cell Death and Differentiation, 2016)

Target: T1, His-tagged Pellino-1 (human, UniProt Q96FA3 1-418)
T1 construct: Pellino-1, human; Pellino-1 FL subcloned into a His6-tagged fusion plasmid; The pull-down text names only 'His-Pellino-1'; also called His-Pellino-1; source: purified His-tagged protein
T1 sequence (looked up): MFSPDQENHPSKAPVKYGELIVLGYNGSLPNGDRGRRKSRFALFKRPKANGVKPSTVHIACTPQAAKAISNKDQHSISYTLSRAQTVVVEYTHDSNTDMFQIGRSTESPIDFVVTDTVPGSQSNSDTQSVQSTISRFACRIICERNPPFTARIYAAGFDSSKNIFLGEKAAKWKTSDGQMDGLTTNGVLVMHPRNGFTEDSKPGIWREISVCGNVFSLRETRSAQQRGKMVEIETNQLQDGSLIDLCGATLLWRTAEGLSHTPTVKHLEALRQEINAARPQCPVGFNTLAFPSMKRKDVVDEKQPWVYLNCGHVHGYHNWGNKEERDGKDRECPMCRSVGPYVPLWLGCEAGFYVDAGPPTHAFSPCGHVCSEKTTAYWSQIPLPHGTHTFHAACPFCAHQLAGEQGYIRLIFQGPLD
Assay: pull-down; GST-Slug or GST-Snail adsorbed onto glutathione beads, incubated with purified His-tagged Pellino-1; bound proteins immunoblotted
Details: both partners purified

B1: GST–Slug fusion protein (natural protein, human, UniProt O43623 1-268, looked up)
chain: MPRSFLVKKHFNASKKPNYSELDTHTVIISPYLYESYSMPVIPQPEILSSGAYSPITVWTTAAPFHAQLPNGLSPLSGYSSSLGRVSPPPPSDTSSKDHSGSESPISDEEERLQSKLSDPHAIEAEKFQCNLCNKTYSTFSGLAKHKQLHCDAQSRKSFSCKYCDKEYVSLGALKMHIRTHTLPCVCKICGKAFSRPWLLQGHIRTHTGEKPFSCPHCNRAFADRSNLRAHLQTHSDVKKYQCKNCSKTFSRMSLLHKHEESGCCVAH
notes: Slug, human; pGEX-KG vector encoding GST-tagged human Slug (gift); source: GST fusion protein (pGEX-KG vector) adsorbed onto glutathione beads
- binding result: binds
